Results reported in publication PMC9482650, “Quantitative fragmentomics allow affinity mapping of interactomes” (Nature Communications, 2022).

Experiments:
Test in all cases: holdup assay
Parameters in all cases: key: below the threshold = too weak to quantify, mostly under pKd 3.1 to 4
[1] = biological target: T1, APBA2_2, Q99767
T1 sequence (Q99767 654-744, limits assumed, looked up): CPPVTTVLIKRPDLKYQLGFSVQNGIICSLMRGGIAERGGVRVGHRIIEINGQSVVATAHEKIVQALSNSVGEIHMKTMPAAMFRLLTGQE

[2] = biological target: T2, ARHGAP21, Q5T5U3
T2 sequence (Q5T5U3 45-169, limits assumed, looked up): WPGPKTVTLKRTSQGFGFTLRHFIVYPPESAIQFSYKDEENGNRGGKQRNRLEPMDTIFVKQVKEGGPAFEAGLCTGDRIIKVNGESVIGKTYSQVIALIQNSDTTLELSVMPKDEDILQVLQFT

[3] = biological target: DLG1_2, Q12959
Chain of DLG1_2, Q12959 (Q12959 314-412): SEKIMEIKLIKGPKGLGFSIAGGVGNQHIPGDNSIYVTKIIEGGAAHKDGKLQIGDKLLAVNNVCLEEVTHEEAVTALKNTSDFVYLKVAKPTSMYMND

[4] = biological target: DLG1_3, Q12959
Chain of DLG1_3, Q12959 (Q12959 457-571): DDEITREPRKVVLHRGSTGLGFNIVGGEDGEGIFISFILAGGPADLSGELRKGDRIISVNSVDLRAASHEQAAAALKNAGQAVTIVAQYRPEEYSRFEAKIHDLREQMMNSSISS

[5] = biological target: DLG4_3, P78352
Chain of DLG4_3, P78352 (P78352 306-403): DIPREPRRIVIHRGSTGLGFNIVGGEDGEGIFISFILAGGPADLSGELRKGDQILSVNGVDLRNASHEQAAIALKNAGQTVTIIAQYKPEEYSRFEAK

[6] = biological target: FRMPD2_1, Q68DX3
Chain of FRMPD2_1, Q68DX3 (Q68DX3 770-861): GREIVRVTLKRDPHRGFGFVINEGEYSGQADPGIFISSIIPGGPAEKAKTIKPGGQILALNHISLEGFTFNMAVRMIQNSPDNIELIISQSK

[7] = biological target: T3, GRIP1_4, Q9Y3R0
T3 sequence (Q9Y3R0 467-571, limits assumed, looked up): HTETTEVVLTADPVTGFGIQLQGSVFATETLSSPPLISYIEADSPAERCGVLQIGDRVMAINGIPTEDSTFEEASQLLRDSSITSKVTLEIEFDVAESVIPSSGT

[8] = biological target: T4, HTRA4, P83105
T4 sequence (P83105 378-476, limits assumed, looked up): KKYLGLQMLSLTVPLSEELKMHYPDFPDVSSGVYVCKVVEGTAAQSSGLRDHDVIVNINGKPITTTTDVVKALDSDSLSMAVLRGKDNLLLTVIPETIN

[9] = biological target: IL16_4, Q14005
Chain of IL16_4, Q14005 (Q14005 1229-1329): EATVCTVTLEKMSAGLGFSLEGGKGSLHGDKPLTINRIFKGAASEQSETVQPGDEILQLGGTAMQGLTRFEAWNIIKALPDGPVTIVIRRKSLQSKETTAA

[10] = biological target: Inadl_3, Q8NI35
Chain of Inadl_3, Q8NI35 (Q8NI35 359-469): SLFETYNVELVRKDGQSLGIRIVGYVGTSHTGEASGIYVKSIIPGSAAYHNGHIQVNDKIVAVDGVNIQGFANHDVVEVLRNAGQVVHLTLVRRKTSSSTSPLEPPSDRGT

[11] = biological target: Inadl_6, Q8NI35
Chain of Inadl_6, Q8NI35 (Q8NI35 1058-1167): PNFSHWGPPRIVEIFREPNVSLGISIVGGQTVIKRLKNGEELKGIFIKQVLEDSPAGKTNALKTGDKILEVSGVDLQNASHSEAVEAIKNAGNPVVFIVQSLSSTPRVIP

[12] = biological target: LAP2, Q96RT1
Chain of LAP2, Q96RT1 (Q96RT1 other isoform, or with tags, fused parts or gaps): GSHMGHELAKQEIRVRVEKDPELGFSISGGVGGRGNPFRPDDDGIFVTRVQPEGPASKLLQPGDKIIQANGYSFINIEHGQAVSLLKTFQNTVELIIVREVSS

[13] = biological target: T5, LIN7B, Q9HAP6
T5 sequence (Q9HAP6 88-185, limits assumed, looked up): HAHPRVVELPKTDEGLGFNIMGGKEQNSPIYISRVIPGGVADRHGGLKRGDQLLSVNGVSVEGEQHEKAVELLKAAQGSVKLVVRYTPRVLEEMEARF

[14] = biological target: T6, LIN7C, Q9NUP9
T6 sequence (Q9NUP9 88-185, limits assumed, looked up): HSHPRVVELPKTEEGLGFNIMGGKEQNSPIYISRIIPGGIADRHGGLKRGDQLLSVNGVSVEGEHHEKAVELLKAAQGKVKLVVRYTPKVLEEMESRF

[15] = biological target: LNX1_2, Q8TBB1
Chain of LNX1_2, Q8TBB1 (Q8TBB1 371-470): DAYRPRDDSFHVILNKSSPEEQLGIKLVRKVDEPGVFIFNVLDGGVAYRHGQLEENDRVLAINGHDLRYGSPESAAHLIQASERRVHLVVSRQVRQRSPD

[16] = biological target: LNX1_3, Q8TBB1
Chain of LNX1_3, Q8TBB1 (Q8TBB1 500-596): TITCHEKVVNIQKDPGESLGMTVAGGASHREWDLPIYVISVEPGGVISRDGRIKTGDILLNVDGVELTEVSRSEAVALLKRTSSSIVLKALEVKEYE

[17] = biological target: T7, LNX2_3, Q8N448
T7 sequence (Q8N448 463-564, limits assumed, looked up): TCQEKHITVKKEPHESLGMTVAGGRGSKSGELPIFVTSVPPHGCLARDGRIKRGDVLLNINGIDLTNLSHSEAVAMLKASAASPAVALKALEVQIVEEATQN

[18] = biological target: MAGI2_4, Q86UL8
Chain of MAGI2_4, Q86UL8 (Q86UL8 772-865): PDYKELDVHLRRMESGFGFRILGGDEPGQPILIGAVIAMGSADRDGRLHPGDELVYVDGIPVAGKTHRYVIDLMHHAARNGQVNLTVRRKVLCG

[19] = biological target: T8, NHERF3_4, Q5T2W1
T8 sequence (Q5T2W1 373-468, limits assumed, looked up): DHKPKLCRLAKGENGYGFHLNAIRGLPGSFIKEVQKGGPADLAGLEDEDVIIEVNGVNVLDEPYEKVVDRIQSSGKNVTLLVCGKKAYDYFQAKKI

[20] = biological target: T9, PDZD2_2, O15018
T9 sequence (O15018 329-429, limits assumed, looked up): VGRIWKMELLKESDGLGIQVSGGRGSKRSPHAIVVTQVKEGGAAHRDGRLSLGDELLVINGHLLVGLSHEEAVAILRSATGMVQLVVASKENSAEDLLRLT

[21] = biological target: T10, PDZRN3_1, Q9UPQ7
T10 sequence (Q9UPQ7 244-349, limits assumed, looked up): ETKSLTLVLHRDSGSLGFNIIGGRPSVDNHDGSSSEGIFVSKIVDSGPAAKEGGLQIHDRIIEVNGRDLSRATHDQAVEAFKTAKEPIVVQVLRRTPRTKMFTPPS

[22] = biological target: SCRIB_2, Q14160
Chain of SCRIB_2, Q14160 (Q14160 857-960): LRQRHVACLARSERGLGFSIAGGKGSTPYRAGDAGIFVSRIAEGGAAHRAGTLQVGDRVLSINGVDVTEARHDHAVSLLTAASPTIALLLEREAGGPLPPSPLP

[23] = biological target: T11, SNTB1, Q13884
T11 sequence (Q13884 107-205, limits assumed, looked up): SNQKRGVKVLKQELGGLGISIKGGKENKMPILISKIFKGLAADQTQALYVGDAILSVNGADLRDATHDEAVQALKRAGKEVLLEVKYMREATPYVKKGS

[24] = biological target: T12, SNTG2, Q9NY99
T12 sequence (Q9NY99 68-166, limits assumed, looked up): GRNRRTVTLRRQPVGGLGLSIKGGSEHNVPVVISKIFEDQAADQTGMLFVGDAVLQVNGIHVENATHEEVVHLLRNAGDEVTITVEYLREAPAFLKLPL

[25] = biological target: TJP1_3, Q07157
Chain of TJP1_3, Q07157 (Q07157 416-512): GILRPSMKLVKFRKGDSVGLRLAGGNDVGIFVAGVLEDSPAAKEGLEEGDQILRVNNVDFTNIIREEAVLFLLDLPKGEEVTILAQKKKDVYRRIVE

[26] = plain residues with an end cap or a label only (N-terminal biotin on a linker: ado-ado)
[27] = modified: phospho on T at position -2 from the C-terminal residue

**Q.** Which pKd [1, 26] does the source give for GQEEQVTTRL [TRPC5, Q9UL62] here?
**A.** below the threshold

**Q.** And the pKd [2, 26]?
**A.** 4.07

**Q.** What about the pKd [3, 26] of the same binder?
**A.** below the threshold

**Q.** What about the pKd [4, 26] of the same binder?
**A.** below the threshold

**Q.** What about the pKd [5, 26] of the same binder?
**A.** below the threshold

**Q.** And the pKd [6, 26]?
**A.** below the threshold

**Q.** What about the pKd [7, 26] of the same binder?
**A.** below the threshold

**Q.** And the pKd [8, 26]?
**A.** below the threshold

**Q.** What about the pKd [9, 26] of the same binder?
**A.** below the threshold

**Q.** What about the pKd [10, 26] of the same binder?
**A.** below the threshold

**Q.** And the pKd [11, 26]?
**A.** 3.79

**Q.** What about the pKd [12, 26] of the same binder?
**A.** below the threshold

**Q.** And the pKd [13, 26]?
**A.** below the threshold

**Q.** And the pKd [14, 26]?
**A.** below the threshold

**Q.** What about the pKd [15, 26] of the same binder?
**A.** below the threshold

**Q.** What about the pKd [16, 26] of the same binder?
**A.** below the threshold

**Q.** What about the pKd [17, 26] of the same binder?
**A.** below the threshold

**Q.** And the pKd [18, 26]?
**A.** below the threshold

**Q.** And the pKd [19, 26]?
**A.** 5.33

**Q.** What about the pKd [20, 26] of the same binder?
**A.** below the threshold

**Q.** And the pKd [21, 26]?
**A.** 3.8

**Q.** What about the pKd [22, 26] of the same binder?
**A.** below the threshold

**Q.** What about the pKd [23, 26] of the same binder?
**A.** 4.04

**Q.** What about the pKd [24, 26] of the same binder?
**A.** 4.44

**Q.** And the pKd [25, 26]?
**A.** below the threshold

**Q.** QPCFNKLFPL [LPXN, O60711] was tested. Which pKd [1, 26] did it give?
**A.** below the threshold

**Q.** What about the pKd [2, 26] of the same binder?
**A.** 3.91

**Q.** And the pKd [3, 26]?
**A.** below the threshold

**Q.** And the pKd [4, 26]?
**A.** below the threshold

**Q.** What about the pKd [5, 26] of the same binder?
**A.** below the threshold

**Q.** What about the pKd [6, 26] of the same binder?
**A.** below the threshold

**Q.** And the pKd [7, 26]?
**A.** below the threshold

**Q.** What about the pKd [8, 26] of the same binder?
**A.** 3.95

**Q.** And the pKd [9, 26]?
**A.** below the threshold

**Q.** What about the pKd [10, 26] of the same binder?
**A.** below the threshold

**Q.** What about the pKd [11, 26] of the same binder?
**A.** below the threshold

**Q.** And the pKd [12, 26]?
**A.** below the threshold

**Q.** What about the pKd [13, 26] of the same binder?
**A.** below the threshold

**Q.** And the pKd [14, 26]?
**A.** below the threshold

**Q.** What about the pKd [15, 26] of the same binder?
**A.** below the threshold

**Q.** What about the pKd [16, 26] of the same binder?
**A.** below the threshold

**Q.** And the pKd [17, 26]?
**A.** below the threshold

**Q.** And the pKd [18, 26]?
**A.** below the threshold

**Q.** And the pKd [19, 26]?
**A.** 3.73

**Q.** What about the pKd [20, 26] of the same binder?
**A.** below the threshold

**Q.** What about the pKd [21, 26] of the same binder?
**A.** below the threshold

**Q.** And the pKd [22, 26]?
**A.** below the threshold

**Q.** And the pKd [23, 26]?
**A.** below the threshold

**Q.** And the pKd [24, 26]?
**A.** below the threshold

**Q.** What about the pKd [25, 26] of the same binder?
**A.** below the threshold

**Q.** How did the pKd [1, 27] turn out when RLQRRRETQV [HPV18-E6_-2P, P06463] was run?
**A.** below the threshold

**Q.** What about the pKd [2, 27] of the same binder?
**A.** 4.03

**Q.** And the pKd [3, 27]?
**A.** below the threshold

**Q.** What about the pKd [4, 27] of the same binder?
**A.** below the threshold

**Q.** What about the pKd [5, 27] of the same binder?
**A.** 3.51

**Q.** What about the pKd [6, 27] of the same binder?
**A.** below the threshold

**Q.** What about the pKd [7, 27] of the same binder?
**A.** below the threshold

**Q.** And the pKd [8, 27]?
**A.** below the threshold

**Q.** And the pKd [9, 27]?
**A.** below the threshold

**Q.** And the pKd [10, 27]?
**A.** below the threshold

**Q.** What about the pKd [11, 27] of the same binder?
**A.** below the threshold

**Q.** And the pKd [12, 27]?
**A.** below the threshold

**Q.** What about the pKd [13, 27] of the same binder?
**A.** below the threshold

**Q.** What about the pKd [14, 27] of the same binder?
**A.** 4.07

**Q.** What about the pKd [15, 27] of the same binder?
**A.** below the threshold

**Q.** And the pKd [16, 27]?
**A.** below the threshold

**Q.** And the pKd [17, 27]?
**A.** below the threshold

**Q.** What about the pKd [18, 27] of the same binder?
**A.** below the threshold

**Q.** And the pKd [19, 27]?
**A.** below the threshold

**Q.** And the pKd [20, 27]?
**A.** below the threshold

**Q.** What about the pKd [21, 27] of the same binder?
**A.** below the threshold

**Q.** And the pKd [22, 27]?
**A.** below the threshold

**Q.** What about the pKd [23, 27] of the same binder?
**A.** below the threshold

**Q.** What about the pKd [24, 27] of the same binder?
**A.** below the threshold

**Q.** And the pKd [25, 27]?
**A.** below the threshold

**Q.** Which pKd [1, 26] does the source give for SSALYGESDL [ACTN2, P35609] here?
**A.** 3.47

**Q.** And the pKd [2, 26]?
**A.** below the threshold

**Q.** What about the pKd [3, 26] of the same binder?
**A.** below the threshold

**Q.** What about the pKd [4, 26] of the same binder?
**A.** 3.75

**Q.** And the pKd [5, 26]?
**A.** below the threshold

**Q.** What about the pKd [6, 26] of the same binder?
**A.** below the threshold

**Q.** What about the pKd [7, 26] of the same binder?
**A.** below the threshold

**Q.** And the pKd [8, 26]?
**A.** below the threshold

**Q.** And the pKd [9, 26]?
**A.** below the threshold

**Q.** What about the pKd [10, 26] of the same binder?
**A.** below the threshold

**Q.** What about the pKd [11, 26] of the same binder?
**A.** below the threshold

**Q.** And the pKd [12, 26]?
**A.** 3.96

**Q.** And the pKd [13, 26]?
**A.** 3.76

**Q.** What about the pKd [14, 26] of the same binder?
**A.** below the threshold

**Q.** What about the pKd [15, 26] of the same binder?
**A.** below the threshold

**Q.** What about the pKd [16, 26] of the same binder?
**A.** below the threshold

**Q.** And the pKd [17, 26]?
**A.** below the threshold

**Q.** And the pKd [18, 26]?
**A.** below the threshold

**Q.** And the pKd [19, 26]?
**A.** below the threshold

**Q.** And the pKd [20, 26]?
**A.** below the threshold

**Q.** What about the pKd [21, 26] of the same binder?
**A.** below the threshold

**Q.** What about the pKd [22, 26] of the same binder?
**A.** 4.06

**Q.** And the pKd [23, 26]?
**A.** 4.05

**Q.** And the pKd [24, 26]?
**A.** below the threshold

**Q.** And the pKd [25, 26]?
**A.** below the threshold
